Results on two molecules are retold here after patent publication US8273705B2, “Conversion of apoptotic proteins” (The Burnham Institute, priority 2002, dated 2012).

“Also recorded” adds a separate entry of the source.

One assay addresses T1, Bcl-2 (Homo sapiens, UniProt P10415).
T1 construct: expressed in transfected cells; host or cells: HEK293T
In words: Co-IP assay of TR3 mutants with Bcl-2 in HEK293T cells. As to conditions: GFP fusions co-transfected with Bcl-2 in HEK293T cells. The assay is classed as binding. How it is done:
TR3/Bcl-2 interaction assays—Reporter gene assays using NurRE-tk-CAT in CV-1 cells, and GST pull-down assay were described previously (Li, et al. 2000 Science 289, 1159-1164). For the mammalian two-hybrid assays, CV-1 cells were co-transfected with pcDNA-Gal4TAD-TR3 or pcDNA-Gal4TAD-TR3/ΔDBD and pcDNA-Gal4DBD-Bcl-2/ΔTM along with a luciferase reporter gene driven by four copies of the Gal4-binding site. The cells were harvested and reporter gene activity was measured. For Co-IP assays, HEK293T cells were transiently transfected with various expression plasmids using a modified calcium phosphate precipitation method (Wu et al, 1997) in the presence of caspase inhibitors (zVAD-fmk) to prevent degradation of TR3 protein due to apoptosis. Cells were suspended in lysis buffer (50 mM Tris-HCl, PH7.4; 150 mM NaCl; 20 mM EDTA; 1% NP-40; 1 mM PMSF; 50 μg/ml Leupeptin; […]; 0.1 mM Na3VO4; and 1 mM DTT). Cells extracts were cleared by incubation with the Protein A/G plus Agarose beads (Santa Cruz) and then incubated with appropriate antibody and 30 μl of Protein A or G plus Agarose beads overnight at 4° C. Beads were then washed and boiled in Laemmli gel-loading solution before performing SDS-PAGE/immunoblotting using the following polyclonal or monoclonal antibodies: monoclonal mouse anti-GFP (Medical and Biological Laboratories), monoclonal mouse anti-HA (Roche Molecular Biochemicals), monoclonal mouse anti-FLAG (Sigma), monoclonal mouse anti-Myc (Santa Cruz), polyclonal rabbit anti-TR3 (Active Motif), or monoclonal mouse anti-Bcl-2 (Santa Cruz). Immunoreactive products were detected by chemiluminescence with an enhanced chemiluminescence system (ECL) (Amersham).
TR3/ΔDBD, which can constitutively reside on mitochondria, was also analyzed by co-immunoprecipitation (Co-IP) assay for its interaction with Bcl-2. GFP-TR3/ΔDBD was transfected into human embryonic kidney cell line 293T alone or together with a Bcl-2 expression vector. The expressed GFP-TR3/ΔDBD mutant protein as then precipitated by using either anti-Bcl-2 antibody or control IgG and detected by western blotting using anti-GFP antibody. The same membranes were also blotted with anti-Bcl-2 antibody to determine precipitation specificity and efficiency. Input represents 10% of total cell extract used in the precipitation assays.
Several TR3 mutants were analyzed to determine the domain of TR3 which interacts with Bcl-2. The TR3 mutants are schematically represented in FIG. 1. A Co-IP assay was performed, as described above. […] Cell extracts were prepared and incubated with anti-Bcl-2 antibody or control IgG for Co-IP assays. Lysates were immunoprecipitated by using either polyclonal rabbit anti-Bcl-2 antibody or control IgG. Cell lysates and immunoprecipitates were examined by immunoblotting using anti-GFP antibody. The same membranes were also blotted with anti-Bcl-2 antibody (Santa Cruz) to determine IP specificity and efficiency. […] This Co-IP was specific because Bcl-2 co-transfection was necessary. […] Thus, the DC1 region in the TR3 LBD is involved in the Bcl-2 interaction.
To further determine the interaction of DC1 with Bcl-2, a region of hydrophobic amino acids ([…]—SEQ ID NO: 1) was deleted from TR3/ΔDBD, and the resulting mutant (TR3/ΔDBD/Δ471-488) was analyzed for its interaction with Bcl-2. TR3/ΔDBD/[…], with eighteen amino acids from 471 to 488 in the DC1 region deleted from TR3/ΔDBD, TR3/ΔDBD/I483A (with Ile483 replaced with Ala) and TR3/ΔDBD/L487A (with Leu487 replaced with Ala) were analyzed for their interaction with Bcl-2 by in vivo Co-IP assay as described above.

The next assay relates to 293T cells. In words: Confocal microscopy of mitochondrial targeting in 293T cells. The assay is classed as cell-based, human. How it is done: (§1) Subcellular localization assays—Cells were seeded onto cover-slips in 6-well plates overnight, then transiently transfected with GFP-fusion expression plasmids. After 16 hours, cells were washed with PBS and fixed in 4% paraformaldehyde. For mitochondrial staining, cells were then incubated with anti-Hsp60 goat IgG (Santa Cruz, USA), followed by anti-goat IgG conjugated with Cy3 (Sigma). For cyt c staining, cells were incubated with monoclonal anti-cyt c IgG (PharMingen), followed by anti-mouse IgG conjugated with Cy5 (Amersham). Fluorescent images were collected and analyzed using a MRC-1024 MP laser-scanning confocal microscope (Bio-Rad). Subcellular fractionation assays were performed as described (Li, et al. 2000 Science 289:1159-1164). Briefly, cells (1×10^7 cells) suspended in 0.5 ml hypotonic buffer (5 mM Tris-HCl, pH 7.4, 5 mM KCl, 1.5 mM MgCl2, 0.1 mM EGTA, pH 8.0, and 1 mM DTT) were homogenized and cell extracts were centrifuged at 500×g for 5 min. The resulting supernatant was centrifuged at 10,000×g for 30 min at 4° C. to obtain the HM fraction. HM fraction was resuspended in 100 μl lysis buffer (10 mM Tris, pH 7.4, 150 mM NaCl, 1% Triton X-100, 5 mM EDTA, pH 8.0) for immunoblotting analysis.
A. confocal microscopy—First an experiment was performed to determine whether the deletion mutant TR3/ΔDBD targets mitochondria via its interaction with Bcl-2. In confocal microscopy analysis, GFP-TR3/ΔDBD and Bcl-2 were transfected into 293T cells alone or together. […] Bcl-2, TR3/ΔDBD and mitochondria (Hsp60) were visualized using confocal microscopy and the three images were overlaid.

A further assay relates to HEK293T cells. The experiment in a line: Subcellular fractionation, heavy membrane (HM) fractions of HEK293T cells. The assay is classed as cell-based, human. The method, then:
as §1, with “analysis. […]” for “analysis.”

T1 sequence (P10415 whole entry): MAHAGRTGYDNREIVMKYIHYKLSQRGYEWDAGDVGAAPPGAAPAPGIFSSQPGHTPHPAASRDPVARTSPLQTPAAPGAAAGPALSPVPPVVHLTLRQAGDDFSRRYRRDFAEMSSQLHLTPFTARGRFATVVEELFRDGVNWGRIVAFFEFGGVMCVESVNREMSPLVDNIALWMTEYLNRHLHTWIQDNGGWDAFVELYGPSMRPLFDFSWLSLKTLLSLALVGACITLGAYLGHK

B1: TR3/ΔDBD: TR3 mutant with the DNA binding domain removed; used as GFP fusion (protein)
chain: MPCIQAQYGTPAPSPGPRDHLASDPLTPEFIKPTMDLASPEAAPAAPTALPSFSTFMDGYTGEFDTFLYQLPGTVQPCSSASSSASSTSSSSATSPASASFKFEDFQVYGCYPGPLSGPVDEALSSSGSDYYGSPCSAPSPSTPSFQPPQLSPWDGSFGHFSPSQTYLVLHRLQCARGFGDWIDSILAFSRSLHSLLVDVPAFACLSALVLITDRHGLQEPRRVEELQNRIASCLKEHVAAVAGEPQPASCLSRLLGKLPELRTLCTQGLQRIFYLKLEDLVPPPPIIDKIFMDTLPF
modifications: left off: large carriers; small tags and cut ends
notes: used as GFP fusion
Turning to B1, the “interaction with Bcl-2 (Co-IP)” value with Bcl-2 is listed as “co-precipitated with Bcl-2”. The figures for the subcellular distribution result with 293T cells (coexpressed with Bcl-2) and in the assay on 293T cells (expressed alone) were “distribution pattern overlaid extensively with that of Hsp60” and “diffuse distribution pattern”, respectively. Also, the “accumulation in HM fraction” value in the assay on HEK293T cells (presence of Bcl-2) is listed as “accumulated in the HM fraction”.

B2: TR3/ΔDBD/Δ471-488: TR3/ΔDBD with eighteen amino acids from 471 to 488 in the DC1 region deleted (protein)
chain: MPCIQAQYGTPAPSPGPRDHLASDPLTPEFIKPTMDLASPEAAPAAPTALPSFSTFMDGYTGEFDTFLYQLPGTVQPCSSASSSASSTSSSSATSPASASFKFEDFQVYGCYPGPLSGPVDEALSSSGSDYYGSPCSAPSPSTPSFQPPQLSPWDGSFGHFSPSQTYLVLFSRSLHSLLVDVPAFACLSALVLITDRHGLQEPRRVEELQNRIASCLKEHVAAVAGEPQPASCLSRLLGKLPELRTLCTQGLQRIFYLKLEDLVPPPPIIDKIFMDTLPF
modifications: left off: large carriers; small tags and cut ends
notes: TR3/ΔDBD with eighteen amino acids from 471 to 488 in the DC1 region deleted
Take B2: in the assay with Bcl-2, the “interaction with Bcl-2 (Co-IP)” value is recorded as “significantly impaired the interaction; also recorded: very weak interaction”. Also, in the assay on 293T cells, the colocalization with mitochondria result was “failed to colocalize with mitochondria”. Besides, the “accumulation in HM fraction” value with HEK293T cells (either in the absence or presence of Bcl-2) is “not found in the HM fraction”.
